The values below come from PMC10755698.

Read-outs that look alike come from different tables or passages of the source.

Holding throughout (assay): native MS
Data set [1] has as its target T1, Lassa virus nucleoprotein NP (wild type) (Lassa virus, AV strain, UniProt Q9DQX7).
In data set [2] the target is T1, Lassa virus nucleoprotein NP (wild type). The source holds these as a separate data set.
For data set [3] the target is unchanged. This is another data set of the same source.

With CGGACACACAAAAAGAAA (ssRNA) [18 nt RNA], the binding result in data set [1] is “binds”.

In the case of ACCAACACACCAACAACAACCUGUGCG (ssRNA) [27 nt RNA], in data set [2], the binding result was “binds”.

ACACAAAGACCC (ssRNA) [12 nt RNA]: the binding result in data set [3] is recorded as “binds”.

On to GCCUAGGAUCCACUGUGCGUGUUGU (ssRNA) [25 nt RNA], for which the binding result in data set [2] is “binds”.

As to UAGGAAUCU (ssRNA) [9 nt RNA], the binding result in data set [3] is recorded as “binds”.
